From patent US20070281326A1 (QUARK PHARMACEUTICALS, published 2007)

How the values were obtained:
TSC2 [1] = molecular target: T1, TSC2 (human, UniProt P49815 1-1807, limits assumed); assay: co-IP from transfected 293T extract, immunoblot (FIG. 11)
T1 construct: TSC2 without a stated tag, endogenous or expressed from transfected cDNA in 293T cell extracts; also called tuberin; endogenous TSC2

HA-tagged TSC2 = molecular target: T2, HA-tagged TSC2 (human, UniProt P49815 1-1807); assay: co-IP with anti-FLAG from CoCl2-treated 293T cells (FIG. 25)
T2 construct: Expressed in 293T cells; used as cell extract; also called HA-TSC2; full length HA-tagged TSC2; not shown: HA tag

[2] = molecular target: T3, TSC2 “N” fragment (a.a. 2-935), HA-tagged (human, UniProt P49815 2-935); assay: co-IP with anti-FLAG from 293T extract, anti-HA blot (FIG. 17)
T3 construct: also called HA-“N” fragment of TSC2; not shown: HA tag

[3] = molecular target: T4, HA-SV5-full length hRTP801 (human, UniProt Q9NX09 1-232); assay: co-IP with M2 anti-FLAG resin from CoCl2-treated 293T HEK extract (FIG. 21)
T4 construct: Expressed in 293T HEK cells; also called HA-full length hRTP801; HA-SV5-hRTP801; not shown: HA tag; SV5 tag
T4 sequence: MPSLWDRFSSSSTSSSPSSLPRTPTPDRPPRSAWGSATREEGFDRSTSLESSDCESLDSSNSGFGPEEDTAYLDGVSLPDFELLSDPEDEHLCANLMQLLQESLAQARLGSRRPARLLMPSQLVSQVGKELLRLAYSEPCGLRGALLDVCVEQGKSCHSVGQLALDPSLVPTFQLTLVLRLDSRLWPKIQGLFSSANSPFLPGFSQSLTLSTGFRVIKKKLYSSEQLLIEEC

TSC2 [4] = molecular target: T1, TSC2; assay: summary of Example 6
TSC2 [5] = molecular target: T1, TSC2; assay: pull-down from cell extract with 6XHis baits (FIG. 13)

T1 sequence (P49815 other isoform, or with tags, fused parts or gaps limits assumed): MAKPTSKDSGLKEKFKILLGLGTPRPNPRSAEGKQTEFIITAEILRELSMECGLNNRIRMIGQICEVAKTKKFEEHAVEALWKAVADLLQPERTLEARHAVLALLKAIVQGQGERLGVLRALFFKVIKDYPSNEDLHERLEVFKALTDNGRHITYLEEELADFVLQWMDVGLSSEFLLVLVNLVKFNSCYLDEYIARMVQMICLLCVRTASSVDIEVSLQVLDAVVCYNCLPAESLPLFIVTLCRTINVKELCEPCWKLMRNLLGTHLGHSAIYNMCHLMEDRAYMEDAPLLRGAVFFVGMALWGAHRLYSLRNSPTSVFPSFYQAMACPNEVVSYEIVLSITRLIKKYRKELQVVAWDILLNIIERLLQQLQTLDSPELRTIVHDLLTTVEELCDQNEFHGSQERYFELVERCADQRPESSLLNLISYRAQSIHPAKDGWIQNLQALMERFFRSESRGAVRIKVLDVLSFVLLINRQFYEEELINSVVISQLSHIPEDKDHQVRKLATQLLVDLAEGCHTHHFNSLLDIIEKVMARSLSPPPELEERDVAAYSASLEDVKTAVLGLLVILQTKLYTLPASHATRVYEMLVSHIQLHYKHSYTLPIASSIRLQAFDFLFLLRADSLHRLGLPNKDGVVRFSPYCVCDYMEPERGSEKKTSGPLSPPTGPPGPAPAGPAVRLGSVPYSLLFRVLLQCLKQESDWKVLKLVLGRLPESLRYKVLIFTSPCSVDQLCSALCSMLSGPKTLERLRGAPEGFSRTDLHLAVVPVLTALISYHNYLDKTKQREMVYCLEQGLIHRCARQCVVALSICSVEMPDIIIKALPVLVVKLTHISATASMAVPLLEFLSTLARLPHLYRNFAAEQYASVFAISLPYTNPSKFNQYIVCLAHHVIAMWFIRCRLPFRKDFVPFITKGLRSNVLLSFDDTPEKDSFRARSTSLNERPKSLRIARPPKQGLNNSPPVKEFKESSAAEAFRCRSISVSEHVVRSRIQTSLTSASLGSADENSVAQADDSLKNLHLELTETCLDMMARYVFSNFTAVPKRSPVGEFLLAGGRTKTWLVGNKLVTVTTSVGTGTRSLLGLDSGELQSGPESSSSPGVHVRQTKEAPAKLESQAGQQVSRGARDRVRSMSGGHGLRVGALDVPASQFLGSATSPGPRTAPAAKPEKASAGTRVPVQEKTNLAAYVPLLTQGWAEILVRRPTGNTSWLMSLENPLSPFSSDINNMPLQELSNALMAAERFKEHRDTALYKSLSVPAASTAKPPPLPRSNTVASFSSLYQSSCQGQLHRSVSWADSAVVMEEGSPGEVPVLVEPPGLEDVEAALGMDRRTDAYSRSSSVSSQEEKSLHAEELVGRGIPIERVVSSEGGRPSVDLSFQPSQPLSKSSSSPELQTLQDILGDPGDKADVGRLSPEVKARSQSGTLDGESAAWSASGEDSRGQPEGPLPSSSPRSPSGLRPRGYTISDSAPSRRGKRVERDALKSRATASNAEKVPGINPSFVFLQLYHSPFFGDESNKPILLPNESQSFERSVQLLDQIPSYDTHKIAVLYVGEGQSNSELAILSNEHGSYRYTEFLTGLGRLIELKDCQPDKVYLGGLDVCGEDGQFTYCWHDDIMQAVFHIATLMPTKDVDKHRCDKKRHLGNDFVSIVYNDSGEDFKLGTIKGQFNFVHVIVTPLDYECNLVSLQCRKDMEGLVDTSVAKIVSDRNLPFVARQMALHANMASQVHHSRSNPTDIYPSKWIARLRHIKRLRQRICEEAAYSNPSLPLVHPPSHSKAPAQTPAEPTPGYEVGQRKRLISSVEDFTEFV
T2 sequence (P49815 other isoform, or with tags, fused parts or gaps limits assumed): as above
T3 sequence (P49815 other isoform, or with tags, fused parts or gaps): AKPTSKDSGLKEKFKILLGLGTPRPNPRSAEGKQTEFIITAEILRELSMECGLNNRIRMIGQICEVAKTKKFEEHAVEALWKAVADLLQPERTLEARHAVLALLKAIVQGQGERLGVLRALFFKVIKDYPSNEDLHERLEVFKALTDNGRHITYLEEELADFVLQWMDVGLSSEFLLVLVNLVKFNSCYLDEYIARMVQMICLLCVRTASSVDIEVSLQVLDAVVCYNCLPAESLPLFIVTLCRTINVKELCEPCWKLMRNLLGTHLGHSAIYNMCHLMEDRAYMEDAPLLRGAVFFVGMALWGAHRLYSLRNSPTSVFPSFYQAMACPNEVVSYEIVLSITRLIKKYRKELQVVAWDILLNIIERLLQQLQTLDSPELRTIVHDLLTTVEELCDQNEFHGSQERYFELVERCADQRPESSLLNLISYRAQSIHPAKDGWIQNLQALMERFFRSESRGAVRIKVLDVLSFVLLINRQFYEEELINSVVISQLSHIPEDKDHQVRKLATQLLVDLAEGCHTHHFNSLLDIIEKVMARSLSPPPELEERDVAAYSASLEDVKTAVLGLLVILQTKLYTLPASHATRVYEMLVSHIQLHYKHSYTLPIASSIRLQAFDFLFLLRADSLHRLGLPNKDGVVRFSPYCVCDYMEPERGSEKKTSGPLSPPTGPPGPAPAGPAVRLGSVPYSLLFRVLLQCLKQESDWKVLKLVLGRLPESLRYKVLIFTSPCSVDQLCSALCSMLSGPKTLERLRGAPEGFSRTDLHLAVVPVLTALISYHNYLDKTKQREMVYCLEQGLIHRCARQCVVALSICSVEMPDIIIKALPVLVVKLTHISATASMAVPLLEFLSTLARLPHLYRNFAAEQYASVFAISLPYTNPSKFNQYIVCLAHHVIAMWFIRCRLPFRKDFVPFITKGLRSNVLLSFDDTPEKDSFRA

B1: FLAG-hRTP801 (other)
chain: MPSLWDRFSSSSTSSSPSSLPRTPTPDRPPRSAWGSATREEGFDRSTSLESSDCESLDSSNSGFGPEEDTAYLDGVSLPDFELLSDPEDEHLCANLMQLLQESLAQARLGSRRPARLLMPSQLVSQVGKELLRLAYSEPCGLRGALLDVCVEQGKSCHSVGQLALDPSLVPTFQLTLVLRLDSRLWPKIQGLFSSANSPFLPGFSQSLTLSTGFRVIKKKLYSSEQLLIEEC
notes: Expressed by transient transfection in 293T cells; full length hRTP801 with FLAG tag; also called FLAG-full length hRTP801; FLAG-RTP801; not shown: FLAG tag
B1: binds (TSC2 [1]); binds (HA-tagged TSC2); binds [2].

B2: FLAG-(N-C2)hRTP801 (other)
chain: MPSLWDRFSSSSTSSSPSSLPRTPTPDRPPRSAWGSATREEGFDRSTSLESSDCESLDSSNSGFGPEEDTAYLDGVSLPDFELLSDPEDEHLCANLMQLLQESLAQARLGSRRPARLLMPSQLVSQVGKELLRLAYSEPCGLRGALLDVCVEQGKSCHSVGQLALDPSLVPTFQLTLVLRLDSRLWPKIQGLFSS
notes: also called hRTP801 N-C2 fragment; hRTP801 N-C2 mutant; not shown: FLAG tag
B2: binds [3].

B3: hRTP801 (other)
chain: MPSLWDRFSSSSTSSSPSSLPRTPTPDRPPRSAWGSATREEGFDRSTSLESSDCESLDSSNSGFGPEEDTAYLDGVSLPDFELLSDPEDEHLCANLMQLLQESLAQARLGSRRPARLLMPSQLVSQVGKELLRLAYSEPCGLRGALLDVCVEQGKSCHSVGQLALDPSLVPTFQLTLVLRLDSRLWPKIQGLFSSANSPFLPGFSQSLTLSTGFRVIKKKLYSSEQLLIEEC
notes: also called endogenous hRTP801; exogenous hRTP801
B3: binds (TSC2 [4]).

B4: 6XHis hRTP801 N-fragment (other)
chain: MPSLWDRFSSSSTSSSPSSLPRTPTPDRPPRSAWGSATREEGFDRSTSLESSDCESLDSSNSGFGPEEDTAYLDGVSLPDFELLSDPE
notes: not shown: 6XHis tag
B4: no binding (TSC2 [5]).
